Here are results for 6 molecules from patent publication US20260027220A1, “EPHA2 BCL-XL INHIBITOR ANTIBODY-DRUG CONJUGATES AND METHODS OF USE THEREOF” (Novartis AG, priority 2022, published 2026).

Several values for one entry are separate records, joined by “and”; a condition that tells them apart may be missing. Equal values may be shown once.

Assay [1] deals with T1, human EphA2 expressed on HKB-11 cells (human, UniProt P29317 24-976).
T1 construct: The HKB-11 cells were transduced to overexpress EphA2; also called HKB-11 EphA2+ cell line
As to the kind of experiment: flow cytometry on HKB-11 cells overexpressing EphA2; lot ZE-39-AG34. (Flow cytometry measures light scatter and fluorescence of single cells or particles in a stream.)
Experimental: (§1) The binding affinity of EphA2 antibodies on cells was evaluated using flow cytometry (FACS). […] Cell lines were cultured in media that is optimal for their growth at 5% CO₂, 37° C. in a tissue culture incubator. Cell viability and cell density were determined using a cell counter (Vi-Cell XR Cell Viability Analyzer, Beckman Coulter). […] All subsequent steps were performed on ice and in ice cold FACS buffer to prevent internalization of the receptor. Cells were resuspended in 100 μL of FACS buffer containing an 11-point serial dilution of test antibodies at final concentrations of 200 nM-0.003 nM. Cells were incubated at 4° C. for 45 minutes. Following incubation, cells were washed three times in ice cold PBS at 1000 rpm for 5 minutes with 200 μL FACS buffer. […] Cells were incubated in the dark at 4° C. for 45 minutes. Following incubation, cells were washed three times in ice cold PBS at 1000 rpm for 5 minutes with 200 μL FACS buffer. Cells were then resuspended in 100 μL FACS buffer containing DAPI (ThermoFisher, #D1306) staining followed by readout via flow cytometry (MACSQuant® Analyzer 10). Data was analyzed using FlowJo v10.8.1 to obtain MFI (Mean Fluorescence Intensity) on live cells. EC₅₀ values were calculated using the GraphPad Prism 9 software. There were three rounds of experiments performed to evaluate three groupings of EphA2 antibodies. […]

The target in assay [2] is T1, human EphA2 expressed on HKB-11 cells. Nature of the assay: flow cytometry on HKB-11 cells overexpressing EphA2; lot ZF-74-CQ11.
Experimental: as §1
Assay [3] deals with T2, mouse EphA2 ectodomain (mouse, UniProt Q03145 26-538).
T2 construct: extracellular domain
Nature of the assay: SPR (Biacore 8k), Fab-capture, 37C, 1:1 model.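 Note: Anti-EphA2 IgG captured via immobilized anti-Fab, soluble EphA2 ectodomain as analyte at six twofold dilutions from 50 nM, HBS-EP+ pH 7.6 running buffer, double reference subtraction.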
Experimental: (§2) A human Fab capture method was utilized in order to determine kinetics for the antibodies. […] Each channel has two flow cells. The reference flow cell contained only immobilized anti-Fab, whereas the reaction flow cell captured anti-EphA2 IgG through anti-Fab. HBS-EP+ Buffer, pH 7.6 was used as the running buffer. The soluble human, mouse and cyno EphA2 ectodomain flowed over both flow cells on 8 channels. The EphA2 ectodomain concentration started at 50 nM and was serially diluted at one part to one part (1:1) in the running buffer for six concentrations. The analysis chamber was kept at 37° C. Regeneration was performed at the end of each sample washing with the solution of 10 mM Glycine-HCl, pH 2.1 provided in the kit.
(§3) The data were analysed using the Biacore Insight Evaluation Software. Double reference subtraction was completed to generate the final data. The raw data was fitted to a 1:1 binding model, with parameter(s) Rₘₐₓ set to local.

The target of assay [4] is T3, human EphA2 ectodomain (human, UniProt P29317 24-537).
T3 construct: Soluble ectodomain used as the SPR analyte
Nature of the assay: SPR (Biacore 8k), Fab-capture, 37C, 1:1 model.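 Note: Anti-EphA2 IgG captured via immobilized anti-Fab, soluble EphA2 ectodomain as analyte at six twofold dilutions from 50 nM, HBS-EP+ pH 7.6 running buffer, double reference subtraction.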
Experimental: as §2, §3

Assay [5] has as its target T4, cyno EphA2 ectodomain (cyno, UniProt Q1KL86 25-537).
T4 construct: extracellular domain
Nature of the assay: SPR (Biacore 8k), Fab-capture, 37C, 1:1 model. (In general: SPR reads the build-up and loss of mass on a sensor chip optically.)
Experimental: as §2, §3

Assay [6] concerns the target T1, human EphA2 expressed on HKB-11 cells. As to the kind of experiment: KinExA apparent (avid) equilibrium KD on human EphA2 HKB-11 cells. Background: In KinExA the mixture passes briefly over coated beads that capture the unbound partner.
Experimental: (§4) Free antibody in equilibrium titration reactions were measured by KinExA using a KinExA 3200, Autosampler (Sapidyne). Data were analyzed using KinExA Pro 4-5-X (Sapidyne).
(§5) Anti-EphA2 antibody was diluted in PBS with 10% HI-FBS and 0.04% sodium azide to 2× the final concentration of binding sites needed for equilibrium titration. […] Cells and antibody were combined 1:1 in an eppendorf tube and incubated overnight, 4° C., rotating. Buffer and antibody alone samples were included. Cells were pelleted and supernatants were transferred to a 2 ml 96-well deep well plate covered with pierceable film.
Data were analyzed by n-Curve Analysis.
For assay [7] the target is unchanged. Nature of the assay: flow cytometry on HKB-11 cells overexpressing EphA2; lot DC-69-ID09.
Experimental: as §1
Assay [8] deals with T2, mouse EphA2 ectodomain. As to the kind of experiment: SPR (Biacore 8k), Fab-capture, 37C, 1:1 model; *low binding signal.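 Note: Anti-EphA2 IgG captured via immobilized anti-Fab, soluble EphA2 ectodomain as analyte at six twofold dilutions from 50 nM, HBS-EP+ pH 7.6 running buffer, double reference subtraction.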
Experimental: as §2, §3
Assay [9] deals with T3, human EphA2 ectodomain. Described as above.
Experimental: as §2, §3
In assay [10] the target is T4, cyno EphA2 ectodomain. The assay is described as above.
Experimental: as §2, §3
The target in assay [11] is T1, human EphA2 expressed on HKB-11 cells. Nature of the assay: KinExA avid equilibrium KD on cells, average of replicates.
Experimental: as §4, §5
Data were analyzed by n-Curve Analysis.
The target is the same in assay [12]. As to the kind of experiment: flow cytometry on HKB-11 cells overexpressing EphA2; lot FE-76-NO13.
Experimental: as §1
Assay [13] shares this target. As to the kind of experiment: flow cytometry on HKB-11 cells overexpressing EphA2; lot DE-39-AD34.
Experimental: as §1
Assay [14] addresses T2, mouse EphA2 ectodomain. As to the kind of experiment: SPR (Biacore 8k), Fab-capture, 37C.
Experimental: as §2, §3
Assay [15] has as its target T4, cyno EphA2 ectodomain. As to the kind of experiment: SPR (Biacore 8k), Fab-capture, 37C.
Experimental: as §2, §3
Assay [16] has as its target T1, human EphA2 expressed on HKB-11 cells. Nature of the assay: flow cytometry on HKB-11 cells overexpressing EphA2; lot HD-58-MP05.
Experimental: as §1
For assay [17] the target is unchanged. As to the kind of experiment: flow cytometry on HKB-11 cells overexpressing EphA2; lot PA-62-QD06.
Experimental: as §1

T1 sequence (P29317 24-976 limits assumed): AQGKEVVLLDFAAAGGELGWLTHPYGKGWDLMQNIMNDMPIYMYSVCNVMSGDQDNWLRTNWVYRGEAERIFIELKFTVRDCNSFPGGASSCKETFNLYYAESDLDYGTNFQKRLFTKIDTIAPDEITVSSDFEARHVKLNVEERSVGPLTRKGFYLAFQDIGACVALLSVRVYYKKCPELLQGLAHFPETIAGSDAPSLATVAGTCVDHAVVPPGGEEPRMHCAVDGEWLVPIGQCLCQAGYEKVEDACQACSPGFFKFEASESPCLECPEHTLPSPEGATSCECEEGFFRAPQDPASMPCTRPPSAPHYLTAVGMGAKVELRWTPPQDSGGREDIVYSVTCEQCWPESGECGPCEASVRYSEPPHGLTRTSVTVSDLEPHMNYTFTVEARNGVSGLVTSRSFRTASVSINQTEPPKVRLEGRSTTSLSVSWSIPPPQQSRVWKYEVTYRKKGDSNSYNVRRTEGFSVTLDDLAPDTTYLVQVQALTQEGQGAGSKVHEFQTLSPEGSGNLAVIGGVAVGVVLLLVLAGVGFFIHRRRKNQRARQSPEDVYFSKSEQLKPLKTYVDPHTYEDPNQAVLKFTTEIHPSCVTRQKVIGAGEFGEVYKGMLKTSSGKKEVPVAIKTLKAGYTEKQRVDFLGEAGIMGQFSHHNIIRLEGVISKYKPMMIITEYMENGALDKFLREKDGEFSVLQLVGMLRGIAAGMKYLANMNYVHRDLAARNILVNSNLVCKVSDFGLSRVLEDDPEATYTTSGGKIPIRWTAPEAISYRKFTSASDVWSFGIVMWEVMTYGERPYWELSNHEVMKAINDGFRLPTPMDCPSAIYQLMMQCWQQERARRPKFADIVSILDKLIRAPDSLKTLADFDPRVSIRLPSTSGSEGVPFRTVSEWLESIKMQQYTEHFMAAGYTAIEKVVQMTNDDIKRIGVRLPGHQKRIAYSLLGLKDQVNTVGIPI
T4 sequence (Q1KL86 25-537): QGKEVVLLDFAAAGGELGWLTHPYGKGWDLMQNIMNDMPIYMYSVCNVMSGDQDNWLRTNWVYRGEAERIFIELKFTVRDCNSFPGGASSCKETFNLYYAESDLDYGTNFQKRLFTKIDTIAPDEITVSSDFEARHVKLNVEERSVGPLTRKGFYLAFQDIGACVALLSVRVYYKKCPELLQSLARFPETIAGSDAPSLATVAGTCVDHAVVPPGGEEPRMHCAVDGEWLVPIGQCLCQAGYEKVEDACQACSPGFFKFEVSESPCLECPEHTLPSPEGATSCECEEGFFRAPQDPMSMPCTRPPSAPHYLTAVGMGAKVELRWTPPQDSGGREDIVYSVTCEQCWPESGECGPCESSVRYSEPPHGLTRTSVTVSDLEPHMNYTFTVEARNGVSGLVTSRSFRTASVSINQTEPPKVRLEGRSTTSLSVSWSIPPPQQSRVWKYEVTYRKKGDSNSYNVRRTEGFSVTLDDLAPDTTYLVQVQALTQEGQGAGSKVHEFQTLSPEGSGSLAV
T2 sequence (Q03145 26-538): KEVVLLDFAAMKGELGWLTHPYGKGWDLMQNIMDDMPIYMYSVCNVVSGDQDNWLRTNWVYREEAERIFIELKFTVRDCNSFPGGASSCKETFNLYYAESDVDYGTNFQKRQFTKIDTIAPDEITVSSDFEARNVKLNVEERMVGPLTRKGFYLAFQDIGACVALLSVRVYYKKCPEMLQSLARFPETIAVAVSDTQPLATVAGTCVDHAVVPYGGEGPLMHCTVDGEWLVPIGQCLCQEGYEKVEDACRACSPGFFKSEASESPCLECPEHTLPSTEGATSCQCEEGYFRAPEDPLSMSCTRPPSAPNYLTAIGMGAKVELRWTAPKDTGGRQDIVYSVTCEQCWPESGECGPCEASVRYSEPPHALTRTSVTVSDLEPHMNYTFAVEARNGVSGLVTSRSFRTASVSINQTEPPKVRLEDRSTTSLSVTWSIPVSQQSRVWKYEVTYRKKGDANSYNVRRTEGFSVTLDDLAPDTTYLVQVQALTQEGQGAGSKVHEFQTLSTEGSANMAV
T3 sequence (P29317 24-537 limits assumed): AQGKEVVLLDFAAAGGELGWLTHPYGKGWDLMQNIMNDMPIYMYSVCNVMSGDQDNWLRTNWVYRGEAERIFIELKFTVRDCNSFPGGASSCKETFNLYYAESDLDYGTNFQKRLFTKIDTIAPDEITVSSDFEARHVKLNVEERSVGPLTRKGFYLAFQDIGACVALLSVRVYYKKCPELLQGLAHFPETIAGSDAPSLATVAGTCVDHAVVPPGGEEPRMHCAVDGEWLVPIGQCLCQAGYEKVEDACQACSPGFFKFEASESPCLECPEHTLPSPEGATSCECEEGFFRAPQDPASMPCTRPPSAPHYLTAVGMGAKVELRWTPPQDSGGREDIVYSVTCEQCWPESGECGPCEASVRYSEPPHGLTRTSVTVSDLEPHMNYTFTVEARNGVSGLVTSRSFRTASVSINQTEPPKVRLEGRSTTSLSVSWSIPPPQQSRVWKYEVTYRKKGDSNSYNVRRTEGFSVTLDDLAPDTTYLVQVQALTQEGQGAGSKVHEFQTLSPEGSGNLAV

B1: anti-EphA2 E152C S375C 1C1 (LC G77S) hIgG1 (WT Heavy Chain) (antibody, V domains shown)
VH: EVQLLESGGGLVQPGGSLRLSCAASGFTFSHYMMAWVRQAPGKGLEWVSRIGPSGGPTHYADSVKGRFTISRDNSKNTLYLQMNSLRAEDTAVYYCAGYDSGYDYVAVAGPAEYFQHWGQGTLVTVSS
VL: DIQMTQSPSSLSASVGDRVTITCRASQSISTWLAWYQQKPGKAPKLLIYKASNLHTGVPSRFSGSGSGTEFSLTISSLQPDDFATYYCQQYNSYSRTFGQGTKVEIKR
notes: also called 1C1 G77S IgG; ZF-74-CQ11
Regarding B1, the results for the EC50 in assay [1] and in [2] were 2.21 nM and 3.73 nM, respectively. Moreover, the Kd in the assay with mouse EphA2 ectodomain [3] was 369 nM; in the assay with human EphA2 ectodomain [4] it was 186 nM; with cyno EphA2 ectodomain [5] it was 222 nM; in [6], 0.171 nM.

B2: anti-EphA2 E152C S375C 1C1 (LC S10T_S72T_G77S) hIgG1 (WT Heavy Chain) (antibody, V domains shown)
VH: EVQLLESGGGLVQPGGSLRLSCAASGFTFSHYMMAWVRQAPGKGLEWVSRIGPSGGPTHYADSVKGRFTISRDNSKNTLYLQMNSLRAEDTAVYYCAGYDSGYDYVAVAGPAEYFQHWGQGTLVTVSS
VL: DIQMTQSPSTLSASVGDRVTITCRASQSISTWLAWYQQKPGKAPKLLIYKASNLHTGVPSRFSGSGSGTEFTLTISSLQPDDFATYYCQQYNSYSRTFGQGTKVEIKR
notes: also called 3x germ
Regarding B2, the koff (commonly the rate constant with which the complex falls apart) is 0.0635 s⁻¹ in the assay with mouse EphA2 ectodomain [3], 0.0996 s⁻¹ with human EphA2 ectodomain [4] and 0.121 s⁻¹ with cyno EphA2 ectodomain [5]. For the same molecule, the kon – broadly, the second-order rate constant of association – in the assay with mouse EphA2 ectodomain [3] was determined as 193000 M⁻¹ s⁻¹; with human EphA2 ectodomain [4], 250000 M⁻¹ s⁻¹; with cyno EphA2 ectodomain [5], 886000 M⁻¹ s⁻¹. In assay [7], the midpoint of the response, the EC50, lay at 23.9 nM. The values for the Kd with mouse EphA2 ectodomain [8], with human EphA2 ectodomain [9] and with cyno EphA2 ectodomain [10] were 328 nM, 398 nM and 137 nM, respectively.

B3: anti-EphA2 E152C S375C 1C1 (LC S72T) hIgG1 (WT Heavy Chain) (antibody, V domains shown)
VH: EVQLLESGGGLVQPGGSLRLSCAASGFTFSHYMMAWVRQAPGKGLEWVSRIGPSGGPTHYADSVKGRFTISRDNSKNTLYLQMNSLRAEDTAVYYCAGYDSGYDYVAVAGPAEYFQHWGQGTLVTVSS
VL: DIQMTQSPSSLSASVGDRVTITCRASQSISTWLAWYQQKPGKAPKLLIYKASNLHTGVPSRFSGSGSGTEFTLTISGLQPDDFATYYCQQYNSYSRTFGQGTKVEIKR
notes: also called 1C1 S72T IgG; FE-76-NO13
B3: the Kd in [11] is 0.137 nM; with mouse EphA2 ectodomain [3], 377 nM; in the assay with human EphA2 ectodomain [4] it was 216 nM; with cyno EphA2 ectodomain [5], 230 nM; in [6] it was 0.132 nM and 0.143 nM. The koff in the assay with mouse EphA2 ectodomain [3] was determined as 0.0512 s⁻¹; in the assay with human EphA2 ectodomain [4], 0.0518 s⁻¹; with cyno EphA2 ectodomain [5], 0.17 s⁻¹. The kon with mouse EphA2 ectodomain [3] is 136000 M⁻¹ s⁻¹; in the assay with human EphA2 ectodomain [4] it was 240000 M⁻¹ s⁻¹; with cyno EphA2 ectodomain [5], 737000 M⁻¹ s⁻¹. Moreover, the EC50 – broadly, the midpoint of the concentration-response curve – in [12] was 3.19 nM; in [13], 2.12 nM.

B4: anti-EphA2 E152C S375C 1C1 (LC N92A) hIgG1 (WT Heavy Chain) (antibody, V domains shown)
VH: EVQLLESGGGLVQPGGSLRLSCAASGFTFSHYMMAWVRQAPGKGLEWVSRIGPSGGPTHYADSVKGRFTISRDNSKNTLYLQMNSLRAEDTAVYYCAGYDSGYDYVAVAGPAEYFQHWGQGTLVTVSS
VL: DIQMTQSPSSLSASVGDRVTITCRASQSISTWLAWYQQKPGKAPKLLIYKASNLHTGVPSRFSGSGSGTEFSLTISGLQPDDFATYYCQQYASYSRTFGQGTKVEIKR
notes: also called BC-56-WI24
With B4, the binding result with mouse EphA2 ectodomain [14] and with cyno EphA2 ectodomain [15] was “no binding (tested: EphA2 ectodomain titrated from 50 nM)” each time.

B5: anti-EphA2 E152C S375C 1C1 (LC S93A) hIgG1 (WT Heavy Chain) (antibody, V domains shown)
VH: EVQLLESGGGLVQPGGSLRLSCAASGFTFSHYMMAWVRQAPGKGLEWVSRIGPSGGPTHYADSVKGRFTISRDNSKNTLYLQMNSLRAEDTAVYYCAGYDSGYDYVAVAGPAEYFQHWGQGTLVTVSS
VL: DIQMTQSPSSLSASVGDRVTITCRASQSISTWLAWYQQKPGKAPKLLIYKASNLHTGVPSRFSGSGSGTEFSLTISGLQPDDFATYYCQQYNAYSRTFGQGTKVEIKR
notes: also called HD-58-MP05
Consider B5, for which, in assay [16], the EC50 is 3.44 nM. Further, the Kd in the assay with mouse EphA2 ectodomain [3] is 343 nM; in the assay with human EphA2 ectodomain [4] it was 265 nM; in the assay with cyno EphA2 ectodomain [5], 259 nM. In addition, the koff with mouse EphA2 ectodomain [3] was determined as 0.0625 s⁻¹; with human EphA2 ectodomain [4], 0.131 s⁻¹; in the assay with cyno EphA2 ectodomain [5], 0.181 s⁻¹. The kon with mouse EphA2 ectodomain [3] came to 182000 M⁻¹ s⁻¹; in the assay with human EphA2 ectodomain [4], 493000 M⁻¹ s⁻¹; with cyno EphA2 ectodomain [5], 697000 M⁻¹ s⁻¹.

B6: anti-EphA2 E152C S375C 1C1 (LC S93V) hIgG1 (WT Heavy Chain) (antibody, V domains shown)
VH: EVQLLESGGGLVQPGGSLRLSCAASGFTFSHYMMAWVRQAPGKGLEWVSRIGPSGGPTHYADSVKGRFTISRDNSKNTLYLQMNSLRAEDTAVYYCAGYDSGYDYVAVAGPAEYFQHWGQGTLVTVSS
VL: DIQMTQSPSSLSASVGDRVTITCRASQSISTWLAWYQQKPGKAPKLLIYKASNLHTGVPSRFSGSGSGTEFSLTISGLQPDDFATYYCQQYNVYSRTFGQGTKVEIKR
notes: also called PA-62-QD06
As to B6, the EC50 in assay [17] was 20.2 nM. Also, the Kd is 286 nM with mouse EphA2 ectodomain [3], 268 nM with human EphA2 ectodomain [9] and 246 nM with cyno EphA2 ectodomain [10]. The figures for the koff in the assay with mouse EphA2 ectodomain [3], with human EphA2 ectodomain [4] and with cyno EphA2 ectodomain [5] were 0.0508 s⁻¹, 0.0792 s⁻¹ and 0.105 s⁻¹, respectively. Further, the kon with mouse EphA2 ectodomain [3] stood at 178000 M⁻¹ s⁻¹; in the assay with human EphA2 ectodomain [4], 296000 M⁻¹ s⁻¹; in the assay with cyno EphA2 ectodomain [5], 428000 M⁻¹ s⁻¹.
